Data as given in the RNAGym collection of RNA variant scans (doi:10.1073/pnas.2313332121).

B1: TPR t1 (parent)
chain: GACCAAUCUGCCCUCAGAGCUCGAGAACAUCUUCGGAUGCAGAGGAGGCAGGCUUCGGUGGCGCGAUAGCGCCAACGUCCUCAACCUCCAAUGCAUCCCACCACAUGAUGAUGCCUGAAGAGCCUUGGUUUUUUG

Variants of: B1
Experiment: polymerase ribozyme fitness, log enrichment relative to wild type (log ratio); higher = more active; in vitro selection for triplet polymerase activity
Summary of the method: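 Each subunit of a heterodimeric triplet polymerase ribozyme was represented by a PCR-built, transcribed mutant library that underwent triplicate single-round in vitro selection with frozen incubation at −7 °C. Extended constructs were recovered by gel excision, streptavidin-bead capture and RT-PCR, and Illumina sequencing of input and output libraries kept genotypes with ≥10 input reads and ≥1 read per output. Fitness is the logarithm of genotype enrichment relative to wild-type enrichment, from inverse-variance-weighted replicate averages, with a logarithm base of 2.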

| Variant | polymerase ribozyme fitness (log ratio) |
| --- | --- |
| C53U G93A A103C | -5.92 |
| C53A A74G | -0.303 |
| U54A C62A G63A C88A | -3.95 |
| U54A G110A C115G | -4.1 |
| C53U A84U U126C | -1.72 |
| C53A G63C | -2.92 |
| C53U C89U C104A C115U C124A U133G | -4.17 |
| C53A C98A | -5.56 |
| C53A C98U | -0.601 |
| C53G G60A G61C A91C | -3.39 |
| C53A C62A U125C | -6.14 |
| U54A C73A C79A G107C A119G | -6.96 |
| G52U U106C | -1.2 |
| C53U C62U A95C | -1.08 |
| C53U A68G | -2.76 |
| C53U C88U | 0.129 |
| C53U C88A G110C | -4.54 |
| C53G C56A C86U U96G G117U | -3.87 |
| C53U C72A A91C C94G C101A | -4.4 |
| G52U G117C | -5.35 |
| G52U G117U | -3.39 |
| C53U C115U G117C | -3.76 |
| C53G U87G C99G C101U G107U G113A | -7.29 |
| C53U C73G C85U C102A | -5.04 |

| Variant | polymerase ribozyme fitness (log ratio) |
| --- | --- |
| C53A C115U | -0.961 |
| C53G U96C U106A A119G U133A | 1.61 |
| C53U C94A | -1.44 |
| G52U U87A | -1.25 |
| C53G A90C | -2.02 |
| U54A G60A U78C C89U G120A U126A | -1.78 |
| C53U C64U A83G | -0.811 |
| C53G U78C C114U U132A | -2.19 |
| C53A C89U U126C | -1.37 |
| C53G C79U G122A | -3.43 |
| C53A C72A | -1.56 |
| C53A C72U | -0.465 |
| C53G C64U | -0.328 |
| C53A C104A | -1.8 |
| C53A U81C U109A G110U U126G | -5.92 |
| C53G G63A C115G U116A U131G | -7.22 |
| C53G G69A U78C C97U | -2.9 |
| G52U G120U | -0.714 |
| U54A G63A C73G | -6.66 |
| U54A G71C C89U U129A | -2.49 |
| U54A C62U U96G | -0.523 |
| C53G C114U G122A | -2.38 |
| U54A C62U C64U | -0.217 |
| C53A C124G | 0.737 |

| Variant | polymerase ribozyme fitness (log ratio) |
| --- | --- |
| U54A C56A C124A | 1.58 |
| U54A G110A | -1.52 |
| C53U A95C C115A | 0.802 |
| U54A C88G G135U | -1.43 |
| C53A G69U C88G U112A G122A U133C | 1.96 |
| C53U U55G G63U U81C G93U U116C G135C | -5.21 |
| C53G C56U G117A | -1.63 |
| U54A C64U C72U | 0.146 |
| C53U G117C | -3.1 |
| C53U G117U | -2.22 |
| C53A U78A | 0.532 |
| C53A C56U C72G A111C | -1.38 |
| C53U G63A C102A A103U | -7.55 |
| C53A G71U | -1.5 |
| C53A C86U G128U | -1.61 |
| U54A C70G A118G U133A G135U | -2.84 |
| C53A U96A U106A G120A | 0.0353 |
| G52U G110A | -1.73 |
| C53G C97A A119U C123U | -4.34 |
| C53U G63A U81A | -2.54 |
| U54A G63U C99U G117U | -5.72 |
| C53A C70A A75U C79A C82G U112C | -3.2 |
| C53G C115A | -0.163 |
| C53A G120U G127A | -0.445 |

| Variant | polymerase ribozyme fitness (log ratio) |
| --- | --- |
| C53A U55A C82U | -0.263 |
| C53U G60A A83C U87C | -0.3 |
| C53A C79A C104A U106A U132C | -3.18 |
| C53G G113U | -2.22 |
| C53U C89U G135C | -0.361 |
| C53A U55G | 0.151 |
| C53U G57U C101A U109G | -6.08 |
| C53G C124A | 0.714 |
| C53G C64U G110U G128A U133A | -5.27 |
| C53U G93C | -1.07 |
| C53U G93U | -0.832 |
| C53U G63A G113U | -5.15 |
| U54A | 0.0154 |
| C53A G57U G93C C97U | -0.989 |
| U54A C70U C73A C124U U129G | -0.505 |
| C53U G71A C124A G128C | -1.39 |
| C53G G63U G122A | -1.7 |
| C53G U78C U81A C101A G120C A121C | -2.66 |
| U54A G69A U78G C82G A121U U130A | -1.06 |
| C53A C94A U112C | 1.14 |
| U54A G61A | 0.266 |
| C53G G71A | -1.22 |
| C53G G71C | -0.515 |
| C53G U112C C124U | 1.27 |

| Variant | polymerase ribozyme fitness (log ratio) |
| --- | --- |
| C53U C97G | -4.59 |
| U54A U55A A74G | -0.235 |
| C53U C76U G128A | -2.11 |
| C53U U87A | -0.467 |
| C53G C70U U78C U106G | -3.34 |
| C53A C56G U81G C101G U129C | -2.89 |
| C53G G63U | -2.05 |
| G52U U129A | -1.63 |
| U54A C73A U78C C102A | -1.97 |
| C53G G117A | -1.45 |
| C53A C76U U87C | -0.534 |
| U54A C62A A95C | -2.03 |
| C53G C102U U112A G120U | -4.93 |
| C53U C62G C64U C115A | -2.42 |
| C53U G120A | 0.773 |
| C53U G120U | -0.193 |
| C53G U54G G63C | -3.77 |
| U54A U59A G60C U106A C124A G128U | -0.601 |
| G52U U96A | -2.01 |
| C53U G57C A83C | -0.254 |
| U54A A83U G110U | -3.19 |
| C53U A91C G120C U133C G135U | -0.968 |
| C53A G60U U106A U109G G113U | -5.78 |
| U54A A74U C124G | 0.443 |

| Variant | polymerase ribozyme fitness (log ratio) |
| --- | --- |
| U54A C70G C115U | -5.02 |
| C53U G60U C101G | -1.27 |
| C53A G63A G93A | -1.34 |
| U54A G71U U87G C123A | -0.353 |
| C53U A90C C104A A121G C123A | -2.12 |
| C53A G60A A105C | -2.91 |
| C53U G135U | -1.02 |
| U54A C102U | -2.1 |
| C53G A90C G117U | -3.56 |
| C53U C62U U106C G117U | -4.61 |
| C53G A91U | -1.68 |
| C53A U78G C80U C123G | 0.434 |
| C53A C89U C115A | -0.188 |
| C53G G61U C70U | -0.621 |
| C53G C70G U81C C94G A121C | -7.53 |
| C53U A74U U81C G120A | -1.15 |
| C53U U109A | -5.04 |
| C53U C73U C79A G127C | -1.71 |
| C53U C73U A90G | 0.151 |
| C53G C70G C115G | -3.49 |
| C53U C72A C123A G128U | -0.319 |
| C53U G63U | -1.11 |
| G52U U54G | -1.03 |
| C53A G77U C102U | -2 |

| Variant | polymerase ribozyme fitness (log ratio) |
| --- | --- |
| C53G G128C | -2.03 |
| C53U C72U A111U | -3.11 |
| U54A U81C A90G C123U | 0.715 |
| U54A A95C | -0.767 |
| C53U A90C U96G A118U | -1.37 |
| C53U G61A A74U G127C | -1.43 |
| C53G G63A A111C A119G | -1.67 |
| C53U A118U G120C U133G | 0.183 |
| C53A C80U U106A | -5.29 |
| C53A C72U U87A G107U | -4.92 |
| C53G U112G G113C | -5.93 |
| C53A C62U C97U G120C | 0.732 |
| C53U G58C U81G C88A C89U G120C | -4.46 |
| C53G A105C | -2.81 |
| G52U G61C | 0.0885 |
| U54A C70U C88G C89U C115A | -0.838 |
| C53A A111C | 0.297 |
| C53U U131G | -0.948 |
| C53G A83C | -1.33 |
| C53U C80U U81C | -4.05 |
| C53U C101A | -0.961 |
| U54A C72G | -0.955 |
| C53U C72A U81G G120A U129A | -1.13 |
